PMC12388516

Target: bovine thrombin (thrombin reagent) (bovine)

Row | Substance | thrombin time (TT) clotting time of human plasma with bovine thrombin; HLF1V at 0.32 and 3.2 µmol/L; expressed at 30 °C; cut-off 300 s | thrombin time (TT) clotting time of human plasma with bovine thrombin; hirudin HV1 at 0.32 and 3.2 µmol/L; expressed at 30 °C; cut-off 300 s
1 | recombinant hirudin-like factor HLF1V expressed in E. coli strain SHuffle T7 (natural protein) | > 300 s | 
2 | recombinant hirudin HV1 expressed in E. coli strain SHuffle T7 (natural protein) |  | > 300 s
